This experiment has as its target host plasminogen (Plg), porcine (pig). The experiment in a line: ELISA; microtiter plates coated with 0.8 ug/well Plg in 50 mM carbonate-bicarbonate buffer pH 9.8; His-tagged proteins added at 1 ug/mL; detected with His-tag monoclonal antibody and HRP anti-mouse; OD450.

As for “truncated rMhp390(27-247) (domain or fragment)”, the fold binding activity (OD450) over the negative control rNOD1 was 2.56 fold.
For the substance “truncated rMhp390(425-604) (domain or fragment)”, the fold binding activity (OD450) over the negative control rNOD1 came out at 2.68 fold.

The values are drawn from PMC12182672.
